Data taken from patent US20250074996A1 (Innovent, published 2025).

Key:
[1] = molecular target: T1, CD3E on the surface of Jurkat-NFAT-Luc cells (UniProt P07766 23-207); experiment: cell-based or functional assay
Cyno BCMA-Fc = molecular target: T2, Cyno BCMA-Fc (monkey (cyno), UniProt A0A2K5UD97 1-53); experiment: BLI (Octet Red96e), SA or AHC sensors, 1:1 fit
T2 construct: also called monkey BCMA antigen (ACRO Biosystems); not shown: Fc tag of the bought antigen
Method: (§1) Sensors (Fortebio, Cat #18-5019) coupled to streptavidin protein (SA) or anti-human-Fc (AHC) were pre-wetted by immersion in 200 μL of SD buffer (1×PBS, 0.1% BSA, 0.05% tween-20). Exemplary antibodies and biotin-labeled or Fc-tagged BCMA and CD3D&E heterodimer antigens were diluted with SD buffer, respectively. 200 μL of SD buffer and diluted samples (100 nM) were taken and added to a 96-well black plate (Greiner, Cat #655209), respectively. The sensors and the samples were placed in Octet (Fortebio, Red96e). Data Acquisition 10.0 was executed and “New Kinetic Experiment” was selected. The sensors were arranged according to the positions of the samples, and the operation procedures and times were set as: Baseline 60 s, Loading 250 s, Baseline 100 s, Association 600 s and Dissociation 600 s. The experiment was conducted at a rotation speed of 1000 rpm and 30° C.
(§2) The results were analyzed in “Data Analysis 10.0” software, with the buffer reference channel being subtracted. 1:1 binding was selected to fit the data, and kₒₙ, koff, and KD values for the exemplary antibodies were calculated.
(§3) In the experiments performed according to the above-mentioned assay, the exemplary antibodies were detected using a human BCMA antigen (ACRO Biosystems) and a monkey BCMA antigen (ACRO Biosystems). The detection results of the affinities to human BCMA are shown in Table 6; and the detection results of the affinities to monkey BCMA are shown in Table 7.

Human BCMA-Bio = molecular target: T3, Human BCMA-Bio (human, UniProt Q02223 1-54, biotin-labeled); experiment: BLI (Octet Red96e), SA or AHC sensors, 1:1 fit
T3 construct: Bought antigen; also called human BCMA antigen (ACRO Biosystems)
T3 sequence (looked up): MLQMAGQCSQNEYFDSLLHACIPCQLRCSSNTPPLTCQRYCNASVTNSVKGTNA
Method: as §1, §2, §3

Cyno CD3D&E-Bio = molecular target: T4, Cyno CD3D&E-Bio (monkey (cyno), UniProt Q95LI5 22-117; Q95LI8 22-105, biotin-labeled (site not stated)); experiment: BLI (Octet Red96e), SA or AHC sensors, 1:1 fit
T4 construct: Bought heterodimer antigen; also called monkey CD3D&E heterodimer antigen (ACRO Biosystems); monkey CD3E
Method: as §1, §2
(§4) In experiments performed according to the above-mentioned assay, the affinities of the exemplary antibodies were detected using a human CD3D&E heterodimer antigen (ACRO Biosystems) and a monkey CD3D&E heterodimer antigen (ACRO Biosystems). The binding affinities of GPRC5D×CD3 bispecific antibodies hz5E12.1-P1/SP34.24 and hz5E12.1-P1/SP34.87 to human/monkey CD3D&E were also detected.

Human CD3D&E-Bio = molecular target: T5, Human CD3D&E-Bio (human, UniProt P07766 23-126; P04234 22-105, biotin-labeled (site not stated)); experiment: BLI (Octet Red96e), SA or AHC sensors, 1:1 fit
T5 construct: Bought heterodimer antigen; also called human CD3D&E heterodimer antigen (ACRO Biosystems); human CD3E
Method: as §1, §2, §4

human GPRC5D = molecular target: T6, human GPRC5D (human, UniProt Q9NZD1 1-345); experiment: flow cytometry on huGPRC5D GS-CHO cells
T6 construct: whole, on cells; also called huGPRC5D; G protein-coupled receptor family C group 5 member D
Method: The affinity of the anti-GPRC5D antibody was detected by flow cytometry. Antibodies at various concentrations were co-incubated with cells expressing human GPRC5D, including GS-CHO cells overexpressing human GPRC5D (huGPRC5D GS-CHO), multiple myeloma cells MM1.R, H929 and AMO-1, for 30 min. A fluorescently-labeled secondary antibody (APC-mouse anti-human IgG Fc antibody, Biolegend, Cat #409306) was then added, the cell fluorescence intensity was detected using a Live/Dead yellow dead cell stain (Thermo Fisher, Cat #L34967) by flow cytometry, a curve was fitted using GraphPad Prism 8.0, and the EC50 value was calculated to show the binding affinity of the antibody to human GPRC5D.
In the exemplary trispecific antibodies, the binding affinities of the antigen-binding sites from the humanized antibodies hz5E12.1.P1 and hz11B7.5 to GPRC5D were detected.

[2] = molecular target: T1, CD3E on the surface of Jurkat-NFAT-Luc …; experiment: cell-based or functional assay; remark: listed apart in the source

T5 sequence (P07766 23-126 limits assumed, chain 1 of 2): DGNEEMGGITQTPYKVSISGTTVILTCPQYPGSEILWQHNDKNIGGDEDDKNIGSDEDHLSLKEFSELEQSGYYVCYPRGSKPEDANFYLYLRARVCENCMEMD
T5 sequence (P04234 22-105 limits assumed, chain 2 of 2): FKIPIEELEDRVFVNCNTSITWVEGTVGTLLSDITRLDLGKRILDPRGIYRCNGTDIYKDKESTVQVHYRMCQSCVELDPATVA
T2 sequence (A0A2K5UD97 entry or part of it): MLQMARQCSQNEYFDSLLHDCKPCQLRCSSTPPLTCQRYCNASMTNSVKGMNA
T4 sequence (Q95LI5 22-117 limits assumed, chain 1 of 2): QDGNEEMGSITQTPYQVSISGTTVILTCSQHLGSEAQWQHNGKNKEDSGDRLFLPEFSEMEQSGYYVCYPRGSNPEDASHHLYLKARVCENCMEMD
T4 sequence (Q95LI8 22-105 limits assumed, chain 2 of 2): as the sequence (P04234 22-105 limits assumed, chain 2 of 2) above, with I5V, N15K, I20V, S32T, D33N, I34N, T64A, S74N, V83L counted along it
T1 sequence (P07766 23-207): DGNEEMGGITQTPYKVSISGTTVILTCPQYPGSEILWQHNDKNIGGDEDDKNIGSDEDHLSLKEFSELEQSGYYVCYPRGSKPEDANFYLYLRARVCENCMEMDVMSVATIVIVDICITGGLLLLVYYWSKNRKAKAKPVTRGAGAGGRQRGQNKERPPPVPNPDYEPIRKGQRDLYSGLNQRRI
T6 sequence (Q9NZD1 whole entry): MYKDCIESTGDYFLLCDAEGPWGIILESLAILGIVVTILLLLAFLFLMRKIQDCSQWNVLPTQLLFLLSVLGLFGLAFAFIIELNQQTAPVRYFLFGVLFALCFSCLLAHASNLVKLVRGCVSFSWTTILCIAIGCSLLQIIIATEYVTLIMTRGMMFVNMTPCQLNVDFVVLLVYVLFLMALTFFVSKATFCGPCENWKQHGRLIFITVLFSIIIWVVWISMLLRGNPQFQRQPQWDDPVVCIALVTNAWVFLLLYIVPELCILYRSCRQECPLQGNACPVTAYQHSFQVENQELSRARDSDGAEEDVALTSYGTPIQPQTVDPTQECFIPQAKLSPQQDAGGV

B1: TS-F2-5 (hz5E12.1.P1/SP34.87/38456) (antibody, human IgG1, kappa, lambda, L234A L235A)
heavy 1: not shown
light 1: DIVMTQSPDSLAVSLGERATINCRASESVDSYGITFMNWYQQKPGQPPKLLIYAASNQGSGVPDRFSGSGSGTDFTLTISSLQAEDVAVYYCQQSKEVPWTFGQGTKLEIKRTVAAPSVFIFPPSDEQLKSGTASVVCLLNNFYPREAKVQWKVDNALQSGNSQESVTEQDSKDSTYSLSSTLTLSKADYEKHKVYACEVTHQGLSSPVTKSFNRGEC
heavy 2: not shown
light 2: QAVVTQEPSLTVSPGGTVTLTCRSSTGAVTTSNYANWVQQKPGQAPRGLIGGTNKRAPGVPARFSGSLLGDKAALTLLGAQPEDEAEYYCALWYSNLWVFGQGTKLTVLGQPKAAPSVTLFPPSSEELQANKATLVCLISDFYPGAVTVAWKADSSPVKAGVETTTPSKQSNNKYAASSYLSLTPEQWKSHRSYSCQVTHEGSTVEKTVAPTECS
EC50 of Jurkat-NFAT-Luc luciferase activation; tumor cells ARD [1]: 0.00696 nM
EC50 of Jurkat-NFAT-Luc luciferase activation; tumor cells MM.1S [1]: 0.00734 nM
Kd (Cyno BCMA-Fc): 0.21 nM
koff (Cyno BCMA-Fc): 0.0002 s⁻¹
kon (Cyno BCMA-Fc): 950000 M⁻¹ s⁻¹
Kd (Human BCMA-Bio): 2.1 nM
koff (Human BCMA-Bio): 0.000279 s⁻¹
kon (Human BCMA-Bio): 133000 M⁻¹ s⁻¹
Kd (Cyno CD3D&E-Bio): 220 nM
koff (Cyno CD3D&E-Bio): 0.0173 s⁻¹
kon (Cyno CD3D&E-Bio): 78600 M⁻¹ s⁻¹
Kd (Human CD3D&E-Bio): 243 nM
koff (Human CD3D&E-Bio): 0.0188 s⁻¹
kon (Human CD3D&E-Bio): 77500 M⁻¹ s⁻¹
EC50 (human GPRC5D): 45 nM
EC50 of Jurkat-NFAT-Luc luciferase activation; tumor cells 8226 [2]: 0.0211 nM
EC50 of Jurkat-NFAT-Luc luciferase activation; tumor cells H929 [2]: 0.0178 nM
EC50 of Jurkat-NFAT-Luc luciferase activation; tumor cells L363 [2]: 0.0213 nM
EC50 of Jurkat-NFAT-Luc luciferase activation; tumor cells U266 [2]: 0.858 nM
